Data: article PMC11313866 (Science Advances, 2024)

Target: recombinant S. cerevisiae histone H3-H4 (S. cerevisiae, UniProt P61830 1-136; P02309 1-103)
Test: pull-down

B1: GST-Pol32^244-350 (domain or fragment)
chain: DKNNDDLEDLLETTAEDSLMDVPKIQQTKPSETEHSKEPKSEEEPSSFIDEDGYIVTKRPATSTPPRKPSPVVKRALSSSKKQETPSSNKRLKKQGTLESFFKRKAK
- binding result: binds
